Reference: PMC10752894, “Structural basis for DNA proofreading” (Nature Communications, 2023)

B1: human mitochondrial DNA polymerase Gamma accessory subunit Polγ_B (residues 26–485) (natural protein, UniProt Q9UHN1 26-485, looked up)
chain: DAGQPELLTERSSPKGGHVKSHAELEGNGEHPEAPGSGEGSEALLEICQRRHFLSGSKQQLSRDSLLSGCHPGFGPLGVELRKNLAAEWWTSVVVFREQVFPVDALHHKPGPLLPGDSAFRLVSAETLREILQDKELSKEQLVAFLENVLKTSGKLRENLLHGALEHYVNCLDLVNKRLPYGLAQIGVCFHPVFDTKQIRNGVKSIGEKTEASLVWFTPPRTSNQWLDFWLRHRLQWWRKFAMSPSNFSSSDCQDEEGRKGNKLYYNFPWGKELIETLWNLGDHELLHMYPGNVSKLHGRDGRKNVVPCVLSVNGDLDRGMLAYLYDSFQLTENSFTRKKNLHRKVLKLHPCLAPIKVALDVGRGPTLELRQVCQGLFNELLENGISVWPGYLETMQSSLEQLYSKYDEMSILFTVLVTETTLENGLIHLRSRDTTMKEMMHISKLKDFLIKYISSAKNV
notes: human DNA polymerase gamma accessory subunit Polγ_B, residues 26-485; It is a homodimer in the holoenzyme, with a proximal copy Polγ_B1 and a distal copy Polγ_B2; also called Polγ_B homodimer; Polγ_B1; source: E. coli BL21-CodonPlus (DE3)-RIPL, purified (Ni-NTA, HiTrap heparin)
B2: DNA20sA/DNA20TS (Complex ONE) (dsDNA)
DNA 1: GAAGACAGTCTGCGGCGCGA
DNA 2: ACACACGCGCGCCGCAGACTGTCTTC
modifications: phosphorothioate before the 3'-terminal A of the primer (racemic)

Legend:
[1] = target: the molecule itself; assay: cryo-EM structure; Complex ONE: 2 μM WT Polγ holoenzyme with the DNA20*A/DNA20_TS scaffold (phosphorothioate mismatched primer), 10 mM Tris-HCl pH 7.9, 100 mM NaCl, 10 mM DTT, 2 mM MgCl2. Complex THREE: the same with the hydrolyzable DNA20A primer. Gives Structures I, II, VII, VIII, IX
[2] = target: Polγ holoenzyme, cryo-EM Complex ONE (Homo sapiens, UniProt P54098;Q9UHN1 26-1239;26-485); assay: cryo-EM; Complex ONE class 1; EMSA: 40 mM Tris-HCl pH 7.9, 60 mM NaCl, 10 mM MgCl2, 5% glycerol, 20 mM 2-mercaptoethanol, 0.1 mg/ml BSA, 150 nM Cy3 scaffold, 10 min room temperature; 0.5% agarose, 0.5X TBE, 4 °C; details: protein: recombinant; tags: N-terminal His (both subunits); copies: 1;2; primer-template, 6 nt 5' template overhang, 3'-terminal A mismatched with G
Polγ holoenzyme, cryo-EM Complex ONE, sequence (P54098 26-1239, one chain of several): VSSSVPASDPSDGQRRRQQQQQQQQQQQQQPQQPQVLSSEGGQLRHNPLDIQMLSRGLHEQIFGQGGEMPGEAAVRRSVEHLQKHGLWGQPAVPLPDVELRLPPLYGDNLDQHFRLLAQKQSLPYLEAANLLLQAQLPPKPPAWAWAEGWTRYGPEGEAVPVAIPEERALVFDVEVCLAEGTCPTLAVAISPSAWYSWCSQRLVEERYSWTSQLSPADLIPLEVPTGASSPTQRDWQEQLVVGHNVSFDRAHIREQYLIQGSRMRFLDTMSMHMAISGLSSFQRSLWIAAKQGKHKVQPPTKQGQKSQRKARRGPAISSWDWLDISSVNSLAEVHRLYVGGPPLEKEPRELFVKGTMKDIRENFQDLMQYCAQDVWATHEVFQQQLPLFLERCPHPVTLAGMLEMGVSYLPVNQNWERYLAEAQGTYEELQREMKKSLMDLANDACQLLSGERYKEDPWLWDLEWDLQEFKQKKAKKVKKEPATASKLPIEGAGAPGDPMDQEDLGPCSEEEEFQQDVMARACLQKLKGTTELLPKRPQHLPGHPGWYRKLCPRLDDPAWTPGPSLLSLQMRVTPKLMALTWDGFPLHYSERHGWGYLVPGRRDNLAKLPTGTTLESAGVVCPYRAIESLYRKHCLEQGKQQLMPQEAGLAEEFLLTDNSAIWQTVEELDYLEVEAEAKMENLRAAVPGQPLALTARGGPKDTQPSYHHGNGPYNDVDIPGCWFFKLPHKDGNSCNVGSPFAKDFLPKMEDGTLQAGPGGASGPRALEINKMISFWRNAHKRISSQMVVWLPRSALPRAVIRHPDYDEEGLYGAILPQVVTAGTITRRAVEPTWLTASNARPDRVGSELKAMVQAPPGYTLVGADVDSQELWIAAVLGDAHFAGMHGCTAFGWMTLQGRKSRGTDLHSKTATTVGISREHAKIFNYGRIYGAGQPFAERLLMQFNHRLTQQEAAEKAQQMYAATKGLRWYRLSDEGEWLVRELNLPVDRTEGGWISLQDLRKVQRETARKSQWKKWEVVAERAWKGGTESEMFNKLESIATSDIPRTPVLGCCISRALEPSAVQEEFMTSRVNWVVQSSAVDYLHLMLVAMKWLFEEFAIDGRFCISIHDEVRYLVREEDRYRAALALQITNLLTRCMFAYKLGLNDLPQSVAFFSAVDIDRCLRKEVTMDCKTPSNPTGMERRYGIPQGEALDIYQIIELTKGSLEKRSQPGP

Binder	binding result [1]	binding result [2]
B1	binds	–
B2	–	binds
